Measured values: article PMC9731694, “SRSF5‐Mediated Alternative Splicing of M Gene is Essential for Influenza A Virus Replication: A Host‐Directed Target Against Influenza Virus” (Advanced Science, 2022)

Target: T1, GST-U1A-His (human (amplified from A549 cells), UniProt P09012 1-282)
T1 construct: also called GST tagged U1A-His
Assay: pull-down; GST pulldown: 300 ng purified SRSF5-Flag with 150 ng glutathione-bound GST-tagged protein, 300 µL, 1 h at 4 °C; 50 mM Tris pH 7.5, 200 mM NaCl, 10% glycerol, 0.5% Triton-X-100, RNaseA; blot with anti-Flag or anti-His
Conditions: both partners purified

T1 sequence (P09012 whole entry): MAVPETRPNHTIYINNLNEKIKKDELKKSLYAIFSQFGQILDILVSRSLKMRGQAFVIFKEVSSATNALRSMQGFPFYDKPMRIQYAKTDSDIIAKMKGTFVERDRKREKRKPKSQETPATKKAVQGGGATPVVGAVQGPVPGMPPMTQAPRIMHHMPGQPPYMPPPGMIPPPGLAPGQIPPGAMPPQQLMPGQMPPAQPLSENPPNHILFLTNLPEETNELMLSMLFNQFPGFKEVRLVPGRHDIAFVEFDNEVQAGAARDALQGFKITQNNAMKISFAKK

B1: purified recombinant SRSF5-Flag (natural protein, human, UniProt Q13243 1-272, looked up)
chain: MSGCRVFIGRLNPAAREKDVERFFKGYGRIRDIDLKRGFGFVEFEDPRDADDAVYELDGKELCSERVTIEHARARSRGGRGRGRYSDRFSSRRPRNDRRNAPPVRTENRLIVENLSSRVSWQDLKDFMRQAGEVTFADAHRPKLNEGVVEFASYGDLKNAIEKLSGKEINGRKIKLIEGSKRHSRSRSRSRSRTRSSSRSRSRSRSRSRKSYSRSRSRSRSRSRSKSRSVSRSPVPEKSQKRGSSSRSKSPASVDRQRSRSRSRSRSVDSGN
notes: also called hSRSF5-Flag; Flag-SRSF5
Does B1 bind?
Result: binds
